Drawing on patent US20110009319A1, this text covers 3TP-lux luciferase expression induced by TGF-b1 in HepG2 cells (fold reduction), FAST2/A3-luciferase induction by 100 pM TGF-b1 in 293T cells (fold reduction) and 3TP-lux luciferase expression induced by activin-A in HepG2 cells (fold reduction) for one substance.

One assay deals with TGF-b1 (UniProt P01137). Kind of assay: cell-based or functional assay.
In the next assay the target is activin-A (UniProt P08476). Kind of assay: cell-based or functional assay.
activin-A, sequence (P08476 311-426): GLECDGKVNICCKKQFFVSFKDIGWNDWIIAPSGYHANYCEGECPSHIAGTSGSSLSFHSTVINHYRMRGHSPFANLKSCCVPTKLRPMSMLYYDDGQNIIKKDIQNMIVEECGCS

TGF-b1, sequence (P01137 279-390 limits assumed): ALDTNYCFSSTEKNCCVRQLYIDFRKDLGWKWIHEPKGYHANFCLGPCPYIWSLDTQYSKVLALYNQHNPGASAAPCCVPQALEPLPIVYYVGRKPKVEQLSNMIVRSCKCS

In the assay with TGF-b1, “wild type mouse Cripto (from UniProt P51865 18-134) (receptor)” registered a 3TP-lux luciferase expression induced by TGF-b1 in HepG2 cells (fold reduction) of 4 and an FAST2/A3-luciferase induction by 100 pM TGF-b1 in 293T cells (fold reduction) of 3. This substance had a 3TP-lux luciferase expression induced by activin-A in HepG2 cells (fold reduction) with activin-A of 4.
